The target of data set [1] is T1, alpha-thrombin (Homo sapiens, UniProt P00734;P00734 328-363;364-622). Put plainly: ITC.
The target of data set [2] is T1, alpha-thrombin. Put plainly: ITC. The source holds these as a separate data set.
For data set [3], the target named is T1, alpha-thrombin. As to the kind of experiment: ITC. This is another data set of the same source.
Data set [4] concerns the target T1, alpha-thrombin. Put plainly: native MS.
Data set [5] deals with T1, alpha-thrombin. As to the kind of experiment: EMSA.

Like-named read-outs stand apart in the source and are kept apart here.

B1: ss(ATTCC)18 (structured_DNA)
DNA: ATTCCATTCCATTCCATTCCATTCCATTCCATTCCATTCCATTCCATTCCATTCCATTCCATTCCATTCCATTCCATTCCATTCCATTCC
With B1, the results for the Kd in the data set with alpha-thrombin [1], in the data set with alpha-thrombin [2] and with alpha-thrombin [3] were 1460 nM, 746 nM and 174 nM, respectively.

B2: ss(ATTCG)18 (ssDNA)
DNA: ATTCGATTCGATTCGATTCGATTCGATTCGATTCGATTCGATTCGATTCGATTCGATTCGATTCGATTCGATTCGATTCGATTCGATTCG
For B2, in the data set with alpha-thrombin [4], the binding result is reported as “no binding”.

B3: ss(GGAAT)18 (ssDNA)
DNA: GGAATGGAATGGAATGGAATGGAATGGAATGGAATGGAATGGAATGGAATGGAATGGAATGGAATGGAATGGAATGGAATGGAATGGAAT
As to B3, the binding result with alpha-thrombin [5] is on record as “no binding”.
